Changes are numbered by the printed parent chain.
T1: Endonuclease III (Endo III);XerC;XerD (Escherichia coli;Vibrio cholerae;Vibrio …, UniProt P0AB83;Q9KVL4;Q9KPE9 1-211;1-311;1-302, ||)
T1 sequence 1: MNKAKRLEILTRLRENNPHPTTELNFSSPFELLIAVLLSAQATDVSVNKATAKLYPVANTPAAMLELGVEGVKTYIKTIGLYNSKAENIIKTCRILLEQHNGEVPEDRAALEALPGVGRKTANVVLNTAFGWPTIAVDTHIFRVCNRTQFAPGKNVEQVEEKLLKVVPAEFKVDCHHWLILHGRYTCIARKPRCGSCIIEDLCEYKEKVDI
T1 sequence 2: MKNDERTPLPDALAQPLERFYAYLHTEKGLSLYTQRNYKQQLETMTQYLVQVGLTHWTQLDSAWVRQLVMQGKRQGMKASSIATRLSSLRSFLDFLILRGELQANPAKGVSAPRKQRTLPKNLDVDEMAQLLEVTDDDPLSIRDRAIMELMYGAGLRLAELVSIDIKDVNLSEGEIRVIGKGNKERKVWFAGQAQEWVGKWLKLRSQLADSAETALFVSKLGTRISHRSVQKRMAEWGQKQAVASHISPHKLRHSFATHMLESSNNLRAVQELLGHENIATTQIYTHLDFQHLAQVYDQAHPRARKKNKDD
T1 sequence 3: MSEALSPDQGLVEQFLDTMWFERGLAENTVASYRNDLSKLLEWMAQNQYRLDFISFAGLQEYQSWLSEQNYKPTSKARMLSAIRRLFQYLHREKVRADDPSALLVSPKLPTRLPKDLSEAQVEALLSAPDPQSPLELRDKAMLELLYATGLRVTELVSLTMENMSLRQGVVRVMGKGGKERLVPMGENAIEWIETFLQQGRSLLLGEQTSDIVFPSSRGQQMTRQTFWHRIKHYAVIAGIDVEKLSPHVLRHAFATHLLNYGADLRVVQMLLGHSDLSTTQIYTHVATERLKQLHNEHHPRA

T2: Endonuclease III (Endo III) (Escherichia coli, UniProt P0AB83 1-211)
T2 sequence: T1 sequence 1

T3: XerC;XerD (Vibrio cholerae;Vibrio cholerae, UniProt Q9KVL4;Q9KPE9 1-311;1-302, |)
T3 sequence 1: T1 sequence 2
T3 sequence 2: T1 sequence 3

B1: attP(+)/dif1 pseudo-HJ (structured_DNA)
DNA 1: GATCCGTGATCACGCTGAACGCGTTTTAGCAGTGCGCATTATGTGGCGCGGCATTATGTTGAGGGGCCTAACGCCTAAAGCGGCCGCCTA
DNA 2: ATCGTAGGCGGCCGCTTTAGGCGTTAGGCCCCGTAACATAATGGCGTATAATACGCATTCGACCGTTGCCGGATCCG
DNA 3: CGATCGGATCCGGCAACGGTCGAGTGCGTATTATGTATGTTATGTTAAATGACATCCTGAGATCTCGA
DNA 4: TCGATCGAGATCTCAGGATGTCATTTAACATAACATACATAATGCGCACTGCTAAAACGCGTTCAGCGTGATCACG
B2: dif1/dif1 HJ (structured_DNA)
DNA 1: GATCCGTGATCACGCTGAACGCGTTTTAGCAGTGCGCATTATGTATGTTATGTTAAATGGCCTAACGCCTAAAGCGGCCGCCTA
DNA 2: ATCGTAGGCGGCCGCTTTAGGCGTTAGGCCATTTAACATAACATACATAATGCGCACTCGACCGTTGCCGGATCCG
DNA 3: B1 DNA 3 with T29C
DNA 4: B1 DNA 4

Assays:
[1] = molecular target: T1, Endonuclease III (Endo III);XerC;XerD; experiment: footprinting
[2] = molecular target: T2, Endonuclease III (Endo III); experiment: EMSA
[3] = molecular target: T3, XerC;XerD; experiment: footprinting
[4] = molecular target: T2, Endonuclease III (Endo III); experiment: competition

| Binder | binding result [1] | binding result [2] | binding result [3] | binding result [4] |
| --- | --- | --- | --- | --- |
| B1 | binds | binds | binds | – |
| B2 | – | – | – | binds |

From publication PMC3442271
